Test results published in paper PMC3802530.
pKd: −log10 of the molar value.

Assays:
K11-linked di-ubiquitin [1] = target: K11-linked di-ubiquitin (UniProt P0CG48); test: 15N T1 relaxation
K11-linked di-ubiquitin [2] = target: K11-linked di-ubiquitin (UniProt P0CG48); test: NMR titration
[3] = target: K48-linked di-ubiquitin (K48-Ub2) (Homo sapiens) (UniProt P0CG47); details: cited from earlier work
monoUb (Homo sapiens) = monoUb (Homo sapiens) (UniProt P0CG47); details: cited from earlier work
[4] = target: K63-linked di-ubiquitin (K63-Ub2) (Homo sapiens) (UniProt P0CG47); details: cited from earlier work

Ub-associated domain (UBA) of Ubiquilin-1, sequence (Q9UMX0 546-586): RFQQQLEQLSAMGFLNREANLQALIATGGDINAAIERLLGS
hHR23a UBA2 UBA2, sequence (P54725 315-361): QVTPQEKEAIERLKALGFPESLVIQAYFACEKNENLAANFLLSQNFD

Row | Substance | stoichiometry N (UBA molecules per K11-Ub2) (K11-linked di-ubiquitin [1]) | Kd, site on the distal Ub (two independent sites) (K11-linked di-ubiquitin [2]) | stoichiometry N (UQ1-UBA:K11-Ub2) (K11-linked di-ubiquitin [2]) | pKd [3] | pKd (monoUb (Homo sapiens)) | pKd [4]
1 | Ub-associated domain (UBA) of Ubiquilin-1 (from UniProt Q9UMX0 546-586) (domain or fragment) | 2 | 2.9 µM | 2 |  |  | 
2 | hHR23a UBA2 UBA2 (from UniProt P54725) |  |  |  | 4.74 | 3.40 | < 3.70
